This note sets out measurements from patent US20030224036A1, “Hla class I a2 tumor associated antigen peptides and vaccine compositions” (priority 1999, published 2003).

Holding throughout (settings): remark: other sources report otherwise
In assay [1] the target is HLA-A*0206 (human). Description: competitive inhibition assay, purified HLA.
Assay [2] deals with HLA-A*0206 (human). Put plainly: competitive binding assay, purified HLA.
The target of assay [3] is HLA-A*0201 (human). Put plainly: competitive inhibition assay, purified HLA.
The target of assay [4] is HLA-A*0201 (human). Put plainly: competitive binding assay, purified HLA.
For assay [5], the target named is HLA-A*6802 (human). Put plainly: competitive inhibition assay, purified HLA.
The target in assay [6] is HLA-A*6802 (human). Put plainly: competitive binding assay, purified HLA.

B1: CEA.605V9 (peptide)
peptide: YLSGANLNV
As a reminder, the IC50 is the point on the concentration scale where inhibition reaches its midpoint. Low readings indicate greater potency in that assay, high ones weaker potency in that assay. As for B1, the IC50 in assay [1] and in assay [2] was 80 nM in each case.

B2: MAGE2.157 (peptide)
peptide: YLQLVFGIEV
Turning to B2, the IC50 in assay [3] and in assay [4] was 50 nM in each case.

B3: Her2/neu.773 (peptide)
peptide: VMAGVGSPYV
In the case of B3, the IC50 in assay [3] amounted to 200 nM.

B4: Her2/neu.665 (peptide)
peptide: VVLGVVFGI
B4: the IC50 in assay [5] and in assay [6] was 2000 nM throughout.
